Test results reported in the supplement of paper PMC10567573.
± gives the standard deviation.

Experiment: protein stability index of a GFP-peptide fusion (GPS, HEK-293T) (PSI 1-6); higher = more stable
[1] = treatment: DMSO, c terminus: a fixed tail appended
[2] = treatment: MLN4924 1 uM, 8 h, c terminus: a fixed tail appended
[3] = treatment: DMSO, c terminus: native
[4] = treatment: MLN4924 1 uM, 8 h, c terminus: native
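Further: 24-mer peptide tiles fused after GFP, lentivirally expressed, FACS-sorted into six equal bins by GFP/DsRed ratio, decoded by Illumina sequencing, PSI is the read-weighted mean bin number.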

Sequence	protein stability index [1]	protein stability index [2]	protein stability index [3]	protein stability index [4]
MHDMLLEELAPVGTAHIPPTMHLE [ZNF449]	3.71 ± 0.32	3.64 ± 0.12	–	–
LNVDAAVQQWLQKGTPASKLILGM [CHIT1]	2.21 ± 0.36	2.25 ± 0.39	–	–
LVGDSDVGKGEILESLQDGAAESP [RAB40C]	5.35 ± 0.27	5.39 ± 0.3	–	–
HEPPFHLDREIRLQRLSHSGSRVR [SCNN1D]	4.27 ± 0.13	4.31 ± 0.21	–	–
CNVKYKRWALLSCRGKKPSRIYGQ [KLHDC10]	2.21 ± 0.42	2.22 ± 0.37	–	–
QPPVPSLSEVKPPPPPPPAQTFLF [TRADD]	3.41 ± 0.49	3.44 ± 0.12	–	–
MQSLDDATKQLDFTRKTLAEKKQE [SASS6]	5.12 ± 0.24	5.19 ± 0.27	–	–
KAEECDTITLNCPRNSDMKNQGEE [EDARADD]	5.62 ± 0.32	5.51 ± 0.31	–	–
KMIMDTAGNDPYCFVEFHEHRHAA [TIA1]	3.28 ± 0.17	3.26 ± 0.29	–	–
QKLADLRSLNEEHSKQYRCLSFQP [VDR]	3.07 ± 0.12	3.24 ± 0.17	–	–
DTPCTNRGLPLLKTDFGSCLLQPP [DLC1]	3.41 ± 0.19	3.34 ± 0.34	–	–
ENTCLLRGFSGGILAFLVLEAVAG [TSPAN10]	3.27 ± 0.15	2.58 ± 0.41	–	–
TNNKVYAAKIIPHSRVAKPHQREK [PLK2]	3.71 ± 0.2	4.08 ± 0.57	–	–
FLEQRPQSPTLEFLLRNSQRTVGQ [EDARADD]	3.15 ± 0.32	3.43 ± 0.34	–	–
FNNGAHMSLLPDKKTVHYYAELGQ [PLK2]	2.92 ± 0.34	2.66 ± 0.25	–	–
STLPRSGSSGGQQPSGMKEGVKRY [CHCHD6]	4.49 ± 0.35	4.8 ± 0.29	–	–
LRAPTISDLLNDQDLLDVIRIKLD [EDARADD]	2.11 ± 0.61	2.06 ± 0.29	–	–
QLQHDFPRALIFSTDDFFFREDGA [N4BP2L1]	3.09 ± 0.24	3.08 ± 0.47	–	–
PRASISHVTCVDQSEHTMVLRCQL [C2CD2L]	2.34 ± 0.26	2.26 ± 0.28	–	–
AAWCLHHICTNYNSVCSKFRKEIK [RHOBTB1]	2.23 ± 0.037	2.19 ± 0.28	–	–
EIITQSPGRSSVASPRRLSNVSSS [MAP2]	3.43 ± 0.18	3.66 ± 0.2	–	–
VSAYVDTTADLDRKLSFSHSDHSS [SPATS1]	3.83 ± 0.1	4.08 ± 0.24	–	–
NAVRQNGQLVRNDSLWHRSDSAPR [MFF]	4.01 ± 0.25	4.07 ± 0.21	–	–

Sequence	protein stability index [1]	protein stability index [2]	protein stability index [3]	protein stability index [4]
CLVKGIFYHCSNDDEGDSYSDNPC [SPRY1]	2.61 ± 0.23	2.89 ± 0.15	–	–
SLQESVEDSLATVKVVLIPVGQEI [IQUB]	2.49 ± 0.53	2.24 ± 0.46	–	–
PGESLECPAELRPQVPQPPSPAAV [TRAF3IP2]	5.31 ± 0.077	5.18 ± 0.43	–	–
NLDKMADNLLAAADKYALERLKVM [SPOPL]	3.1 ± 0.44	3.04 ± 0.42	–	–
DYRKQLQYPNPLPVLSGAELEKAH [VPS39]	4.5 ± 0.15	4.41 ± 0.12	–	–
VWTNDQVVHWVQSIGLRDYAGNLH [PPFIA4]	2.16 ± 0.53	2.11 ± 0.29	–	–
GDSHYEIEIVHISTVQILTEGFPP [ZFYVE21]	2.71 ± 0.8	2.85 ± 0.78	–	–
RKQLQPTHCKYEGPRKARRLWFA	–	–	2.85 ± 0.39	3.04 ± 0.13
ENANLQEYVEKETQEKKRLSRTNE [MTUS2]	5.33 ± 0.45	5.35 ± 0.18	–	–
SRSVEDDKEGHLVCRIGDWLQERY [CLK3]	3.41 ± 0.23	3.45 ± 0.2	–	–
DDEFFHFVLLCFAIGALLVCYHYY [TMEM40]	2.27 ± 0.39	2.37 ± 0.88	–	–
LLDAHILEWHDSLFQILSERQDMY [ZNF511]	2.32 ± 0.4	2.17 ± 0.23	–	–
PGKLFIGGLNRETNEKMLKAVFGK [RBMY1A1]	2.69 ± 0.12	2.86 ± 0.14	–	–
FRVTLWVHPFVNYNSSRFGEGVER [MYORG]	2.77 ± 0.89	2.62 ± 0.41	–	–
NEPSINFYKRRGASDLSSEEGWRL [SAT1]	3.69 ± 0.4	3.84 ± 0.17	–	–
QKAPMTTVRGLHCMCTVGERLYVI [KLHL13]	3.21 ± 0.61	2.75 ± 0.52	–	–
GPHTISNQNNYRLLSCGKILTGCK [ACSBG2]	3.21 ± 0.13	2.84 ± 0.62	–	–
VQERLTKQIAVAITEALRPAGVGV [GCH1]	2.23 ± 0.2	2.17 ± 0.13	–	–
HVLIHNTLQQLQAALRLAPAPALP [SERTAD3]	2.51 ± 0.47	2.55 ± 0.2	–	–
RELRCKVFPIKHYQDKIRPYIQLP [TRIB1]	2.15 ± 0.42	2.32 ± 0.1	–	–
TSSCPNVSERSFDNVRSLKVESGA [CRYBA1]	5 ± 0.44	4.63 ± 0.2	–	–
EPNTFSPANVDASVMFRKWRDSKG [UBE2R2]	4.16 ± 0.46	4.4 ± 0.3	–	–
LNYTYKRFEGLTQRGSIPTYMKAG [STK38L]	2.5 ± 0.18	2.67 ± 0.22	–	–

Sequence	protein stability index [1]	protein stability index [2]	protein stability index [3]	protein stability index [4]
GKVKLQQNPGKFDELDMSPGDPKW [TBC1D10A]	4.51 ± 0.32	4.83 ± 0.23	–	–
LLRRSVEGASSDNGCEVKNRKSIL [PHTF1]	3.99 ± 0.17	4.05 ± 0.55	–	–
PETVMTTLYTAKKYAVPALEAHCV [BTBD1]	2.7 ± 0.13	2.83 ± 0.15	–	–
CTNSPAIVRFSGQSRGVPAVSESY [FBXO34]	3.21 ± 0.46	3.14 ± 0.45	–	–
SSEHFEKLHEIFRGLHEDLQGVPE [VTI1B]	4.11 ± 0.32	3.97 ± 0.12	–	–
LQCDAVNLAFGRRCEELEDARYKL [TEKT4]	3.74 ± 0.26	3.64 ± 0.31	–	–
EDQVPALEAPEDIGSTSESKDWEE [MIA2]	5.8 ± 0.12	5.71 ± 0.27	–	–
ASLGEKRDHHSTHYRASEEEPEYG [CHGB]	5.37 ± 0.24	5.34 ± 0.11	–	–
KKLRLNGGRNPYEGRVEVLVERNG [LOXL2]	3.05 ± 0.13	4.01 ± 0.18	–	–
RLVDAVLGAEIRNGMAIIRPPGHH [HDAC6]	1.96 ± 0.17	2.02 ± 0.35	–	–
KDDKDFTGTVHRIDNTTVIYNSNI [KCNA1]	4.29 ± 0.2	4.37 ± 0.2	–	–
GCIAAENCIGIRDFALHYCLHHVH [GAN]	2.72 ± 0.25	2.53 ± 0.33	–	–
VYRDLKPENILLDRDGHIKLTDFG [PRKX]	3.07 ± 0.28	3.54 ± 0.24	–	–
LSELYEESSDLQMDVMPGEGDLPQ [EID1]	5.42 ± 0.47	5.12 ± 0.47	–	–
TWTKHAEGGIFTSPNYPSKYPPDR [NETO1]	3.94 ± 0.19	3.85 ± 0.065	–	–
ERLVVLDYIIRNTDRGNDNWLIKY [PI4K2A]	2.2 ± 0.65	2.49 ± 0.65	–	–
RFSHMSERDLQELSIQVEEERRAR [ZMAT5]	5.51 ± 0.56	4.97 ± 0.87	–	–
QIHLDVDNDRTTPSDLDSTGNSLN [DLC1]	5.19 ± 0.25	5.28 ± 0.18	–	–
SSDRSRDSSHERTESQLTPCIRNV [BTBD10]	5.06 ± 0.065	5 ± 0.2	–	–
LRLLREEEYVAPPRGPLPTLQVVP [TRAF3IP2]	2.96 ± 0.3	3.23 ± 0.14	–	–
QDDHDHKVQELMSTHELEKKELEE [MTUS2]	5.59 ± 0.29	5.59 ± 0.33	–	–
SSVSDVKFSHSGRYMLTRDYLTVK [PPP2R2C]	2.88 ± 0.24	2.87 ± 0.39	–	–
MKNLLFSEMWDIFLVRLLMAMAVM [MFSD9]	3.14 ± 0.48	3.22 ± 0.77	–	–

Sequence	protein stability index [1]	protein stability index [2]	protein stability index [3]	protein stability index [4]
GRREGCDICAGKAGCPIVEEPLG [RPS21]	–	–	4.03 ± 0.13	4.33 ± 0.3
GFTNKQLQSGQEYVFFVLAVMEHA [PTPRD]	2.95 ± 0.76	2.39 ± 0.79	–	–
VHTGCHKKLGPEARRPRTRWGKN	–	–	2.8 ± 0.5	3.08 ± 0.69
QAAVAAGDVHTVRKMLEQGYSPNG [ASB7]	4.09 ± 0.31	4.11 ± 0.12	–	–
ILDTAGTEQFTAMRDLYMKNGQGF [RAP1B]	3.29 ± 0.36	3.46 ± 0.36	–	–
FLAENSAFPKMALQAKQDGKKDVS [LCOR]	4.23 ± 0.29	4.36 ± 0.36	–	–
MNRAFSRKKDKTWMHTPEALSKHF [GULP1]	2.69 ± 0.21	2.85 ± 0.14	–	–
VKYIVERTMLDFPQHVSSDKEVRA [NLN]	2.82 ± 0.36	2.69 ± 0.25	–	–
DDSCLNNDIPHSIPLEQGSSCNGP [FAN1]	5.17 ± 0.19	5.09 ± 0.1	–	–
EGVIDSSDKEIVAEAERLDVKAMG [EIF5]	5.34 ± 0.12	5.35 ± 0.15	–	–
YSSEDSTLASVPPAATFGADDLVL [ELF3]	4.5 ± 0.13	4.48 ± 0.22	–	–
TIEELQQKILCSKSENARLVVQID [KRT33B]	3.38 ± 0.19	3.28 ± 0.53	–	–
CRLKKCFRAGMKKEAVQNERDRIS [HNF4A]	3.22 ± 0.27	3.44 ± 0.25	–	–
TITEEIRDGKVISSREHVQSRPL [KRT36]	–	–	5.23 ± 0.29	5.26 ± 0.21
HKLDLNTREWTQLKPNNLSCDLPE [KLHDC10]	4.4 ± 0.12	4.41 ± 0.3	–	–
LHAVADIHCENCKTTLGWKYEQAF [YPEL3]	2.38 ± 0.49	2.14 ± 0.46	–	–
RAMHLMKKREKQREQMEQMKQRIA [FAM50A]	3.27 ± 0.24	3.51 ± 0.14	–	–
LKQLLTETDVWFSKQRKDFEGMAF [GMCL1]	2.7 ± 0.48	2.52 ± 0.19	–	–
DTGEEEEGGDESDLSSESSIKKKF [EHMT1]	5.46 ± 0.32	5.3 ± 0.12	–	–
GLHVQHMGTSHGITRPSPRRSNSP [CCDC6]	4.51 ± 0.17	4.57 ± 0.082	–	–
